Results taken from patent publication US6919309B2, “Methods and compositions for inhibiting angiogenesis” (Northwestern University, priority 1997, dated 2005).
Marks after values point to notes of the source that are not given here.

Experiments:
[1] = system: human dermal microvascular endothelial cells; test: Endothelial cell migration assay (modified Boyden chamber), human dermal microvascular endothelial cells; assay type: cell-based; conditions: 10 ng/ml bFGF plus PEDF; FIG. 1
Protocol: (§1) The cells were plated on gelatinized Nucleopore membranes (5 μm pores for bovine capillary cells and 8 μm pores for other cells) in an inverted modified Boyden chamber. After two hours, the chamber was reinverted and test substances added to the top wells of each. Specifically, populations were exposed to either culture medium alone (control), 10 ng/ml bFGF, 2 nM PEDF (full length PEDF), or both 10 ng/ml bFGF (basic fibroblast growth factor) and 10 nM PEDF. The cells were then permitted to migrate for 3-4 hours. Following this, the membranes were fixed and stained, and the number of cells that had migrated were counted.
Additional truncated peptides derived from PEDF were tested for efficacy in the endothelial cell migration assay using human dermal microvascular endothelial cells (Clonetics, Cell Systems) at passage 9 in a modified Boyden Chamber, as described above, and the results are shown in FIG. 7. In FIG. 7A, the cells were exposed to the gradient of VEGF in the presence of purified recombinant PEDF (rPEDF), bacterially produced PEDF (BH) or PEDF peptides containing only amino acid residues 78-121 (44-mer) and 44-77 (34-mer) referring to SEQ ID NO:1. Neutralizing antibodies were added where shown to verify if the anti-angiogenic effect is specific to PEDF peptides and not due to contamination. Both full length PEDF preparations were used at 25 nM, neutralizing polyclonal antiserum against PEDF was used at 1:200 dilution, recombinant human VEGF (R&D Systems) at 200 pg/ml. In FIG. 7B, the cells were exposed to the gradient of VEGF in the presence of increasing concentrations of 34-mer and 44-mer peptides. The antiserum used in this experiment was not affinity purified, whereas the antiserum used in all other experiments presented herein was affinity purified.

[2] = system: endothelial cells isolated from human umbilical chords; test: Endothelial cell migration assay, endothelial cells from human umbilical chords; assay type: cell-based; conditions: 10 ng/ml bFGF plus PEDF; FIG. 1
Protocol: The migration of different vascular endothelial cell types was determined by adding PEDF to cultured endothelial cells, specifically, endothelial cells isolated from bovine adrenal capillaries, human umbilical chords, and human dermal microvascular tissue.
as §1

[3] = system: WI-38 fibroblasts, human foreskin fibroblasts, vascular smooth muscle cells, human neutrophils; test: Migration assay with non-endothelial cells; assay type: cell-based; conditions: PEDF 0.01 nM to about 50 nM; inducers IL-8 or PDGF; FIGS. 2A-2D
Protocol: The ability of PEDF to prevent migration of fibroblasts or smooth muscle was tested using cells obtained from human diploid fibroblast cell line WI-38, human foreskin fibroblasts, vascular smooth muscle, and normal human neutrophils.
The assay was performed as indicated in Example 1, except that the dose of PEDF varied from 0.01 nM to about 50 nM and that the migration assay was performed without inverting the chambers. Moreover, the inducer of migration varied with the cell type (IL-8 was used at 1 μg/ml and PDGF was used at 250 pg/ml).

avascular rat cornea = test: Rat cornea neovascularization assay (implanted pellets); assay type: in vivo
Protocol: FIG. 13, comprising FIGS. 13A and 13B, is a table and a series of images of photomicrographs depicting inhibition of neovascularization by purified PEDF and by PEDF present naturally in normal human vitreous and cornea. FIG. 13A: Recombinant (rPEDF) or purified (pPEDF) PEDF (8 nM), PEDF peptide 327 to 343 (299 μg/ml), undiluted vitreous fluid, or corneal extract (used at 200 μg of protein per milliliter) was incorporated with vehicle (PBS) and the indicated additions into Hydron pellets that were implanted into the avascular rat cornea. Vigorous ingrowth of vessels from the limbus toward the pellet by 7 days was scored as a positive response (Polverini, et al, 1991, Methods Enzymol 198:440). Where noted, anti-PEDF linked to protein A beads was used to remove PEDF from vitreous fluid and corneal extract. FIG. 13B, comprising FIGS. 13B-1 through 13B-8: Representative photos of corneal responses from FIG. 13A shown at X13 magnification. PEDF antipeptide antibody (anti-PEDF) was raised in rabbits against a peptide containing pEDF amino acids 327-343, conjugated to Keyhole-limpet hemocyanin, and affinity-purified on a peptide column. Polyclonal antisera against bacterial recombinant PEDF/EPC-1 (anti-EPC-1) is described in DePaolo, et al. (1995, Exp. Cell Res. 220:178) and the antiangiogenic protein angiostatin is descried in O'Reilly, et al. ([…], Cell 79:315). Purchased reagents included neutralizing anti-VEGF (Genzyme Cambridge, Mass.), pan antibodies to TGFβ, and all angiogenic inducers (R&D Systems, Minneapolis, Minn.) except lysophosphatidic acid (Sigma). All proteins and antibodies were extensively dialyzed against PBS before use in biological assays. FIG. 13B-1 corresponds to sample 2 of FIG. 13A; FIG. 13B-2 corresponds to sample 12 of FIG. 13A, FIG. 13B-3 corresponds to sample 3 of FIG. 13A; FIG. 13B-4 corresponds to sample 11 of FIG. 13A; FIG. 13B-5 corresponds to sample 8 of FIG. 13A; FIG. 13B-6 corresponds to sample 16 of FIG. 13A; FIG. 13B-7 corresponds to sample 6 of FIG. 13A; FIG. 13B-8 corresponds to sample 17 of FIG. 13A. […]

retina of C57/BL6 mice = test: Hyperoxia-induced ischemic retinopathy, systemic treatment; assay type: in vivo, mouse; conditions: day 12 through 16
Protocol: Retinopathy was induced in C57/BL6 mice by placing seven day old mice with their dams in an oxygen tent and maintaining the animals in a 75% oxygen/25% nitrogen environment until day twelve. On day twelve, the animals were removed from the tent and placed at ambient atmosphere (21% oxygen). From day twelve through day sixteen, pups were treated via intraperitoneal injection once per day with 100 μl of either phosphate buffered saline (PBS) vehicle, or 11.2 μg or 22.4 μg PEDF in PBS. Pups were anesthetized with Metaphane and perfused with 1 ml of fixative (4% paraformaldehyde/100 mM sodium phosphate buffer (pH 7.2)/4% sucrose) through the left ventricle of the heart. Eyes were removed and placed in fixative, embedded in paraffin, and processed for histologic examination. Cross sections of the eye were made, stained with hematoxylin-phloxine-saffarin (HPS), and the number of endothelial cell nuclei crossing the inner limiting membrane of the retina were counted in one cross section that contained the cornea, lens, retina and optic nerve. FIG. 16A illustrates retinopathy in the eye of a PBS treated animal, the box surrounds a vascular tuft that has penetrated the inner limiting membrane of the retinal in the low power picture. FIGS. 16C and 16D illustrate the eye of a PEDF treated mouse, no vascular tufts are present. The # of endothelial cell nuclei were quantified (Table 3).

[4] = PEDF 8 nM in pellet, seven days

B1: PEDF: full length pigment epithelium derived growth factor, SEQ ID NO:1; purified from WERI-Rb-27R medium or recombinant histidine-tagged (protein, listed as Homo Sapiens)
chain: MQALVLLLCIGALLGHSSCQNPASPPEEGSPDPDSTGALVEEEDPFFKVPVNKLAAAVSNFGYDLYRVRSSMSPTTNVLLSPLSVATALSALSLGADERTESIIHRALYYDLISSPDIHGTYKELLDTVTAPQKNLKSASRIVFEKKLRIKSSFVAPLEKSYGTRPRVLTGNPRLDLQEINNWVQAQMKGKLARSTKEIPDEISILLLGVAHFKGQWVTKFDSRKTSLEDFYLDEERTVRVPMMSDPKAVLRYGLDSDLSCKIAQLPLTGSMSIIFFLPLKVTQNLTLIEESLTSEFIHDIDRELKTVQAVLTVPKLKLSYEGEVTKSLQEMKLQSLFDSPDFSKITGKPIKLTQVEHRAGFEWNEDGAGTTPSPGLQPAHLTFPLDYHLNQPFIFVLRDTDTGALLFIGKILDPRGP
In the case of B1, the “migration, percentage of maximal migration” value [1] is reported as “considerably less migration was observed”, the “migration, percentage of maximal migration” value [2] is reported as “considerably less migration was observed” and the “inhibition of migration of non-endothelial cells” value [3] is reported as “did not inhibit the migration”. The “effect on neovascularization in the rat cornea” value (avascular rat cornea; Hydron pellets, 7 days, FIGS. 13A and 13B) was “potently inhibited neovascularization”, the “number of corneas with angiogenesis/number of corneas implanted, With bFGF” value (avascular rat cornea; [4]) was 0/3 and the “number of corneas with angiogenesis/number of corneas implanted, Without bFGF” value (avascular rat cornea; [4]) was 0/3. The “Mean number of endothelial cell nuclei crossing ILM into vitreous per cross section” value (retina of C57/BL6 mice; 11.2 μg PEDF/day intraperitoneal) was 18.6 +/− 2.2* and the “Mean number of endothelial cell nuclei crossing ILM into vitreous per cross section” value (retina of C57/BL6 mice; 22.4 μg PEDF/day intraperitoneal) was 18.2 +/− 2.5*.
